Laboratory results as given in patent US20230303623A1, “PEPTIDES AND METHODS OF USE” (REALTA LIFE SCIENCES, INC., priority 2020, published 2023).
Bridges are numbered along the chain shown (N, C = ends). Where no end group is shown, it is not given here. [ ]: non-standard residue; d: D form. R8 = C=CCCCCCC[C@@](C)(N)C(=O)O; S5 = C=CCCC[C@](C)(N)C(=O)O; Sar = CNCC(=O)O

Columns and labels:
MPO = biological target: T1, MPO (Homo sapiens, UniProt P05164); assay: MPO activity assay; format: biochemical; settings: compared to parent peptide
T1 construct: purchased Lee BioSolutions (Maryland Heights, MO)
Description: The MPO activity assay was performed as previously described. Briefly, peptides were diluted to 12 mg/ml and serially titrated in a 96 well plate at a volume of 0.02 ml. MPO was diluted to 20 μg/ml and 0.02 ml was added to the titrated peptides. TMB (3,30,5,50-tetramethylbenzidine) (0.1 ml) was added to each well for 2 minutes, followed by 0.1 ml of 2.5 N H2SO4 for another 2 minutes, and then read on a 96 well plate reader (BioTek) at 450 nm.
To ascertain the inhibition of MPO activity by the various peptides, a range of concentrations of the stapled peptides and D-amino acid variants were tested (FIG. 3A-3B) and half-maximal activity levels were calculated from the dose-response curves (FIG. 6A-6C, respectively).

PD-1 = PD-1 (Homo sapiens, UniProt Q15116); assay: Peptide binding to immobilized PD-1, ELISA plate-based assay; settings: increasing amounts of peptide
Description: (§1) RLS-0134 and RLS-0150 were allowed to bind to immobilized CTLA-4, PD-1, PD-L1 on the surface of the plate. Bound C1q and MAC-1 served as a positive and negative control for peptide binding, respectively. Increasing amounts of peptides were added to the plates followed by a rabbit polyclonal antibody that recognizes the peptides and then a secondary anti-rabbit antibody conjugated with HRP. The plate was then developed by addition of TMB as the substrate for the colorimetric assay.
(§2) The inventors further evaluated if RLS-0134 and RLS-0150 could bind to the well characterized checkpoint inhibitor, cytotoxic T-lymphocyte associated protein 4 (CTLA-4 aka CD152). […] Therefore, the pharmaceutical inhibition of CTLA-4 or its ligand has been considered a promising strategy by many cancer researchers and could be a therapeutic target in cancer immunotherapy. To ascertain the ability of select PIC1 peptides to bind CTLA-4, a binding assay was performed in which these proteins were coated on a microtiter plate followed by incubation with increasing amounts of either RLS-0134 and RLS-0150. Plates coated with PD-1, PD-L1 and C1q served as a positive control for peptide binding whereas MAC-1 served as a negative control for peptide binding.

[1] = system: antibody-initiated complement activation (lysis of AB human red blood cells by type O serum); assay: ABO incompatibility hemolytic complement assay (CH50-type); format: cell-based; settings: peptides 0.8 mg/ml (~0.5 mM); compared to parent peptide
Description: FIG. 1A-1B show PIC1 peptides' inhibition of complement activation in an ABO incompatibility assay. […] Inhibition of ABO incompatibility hemolysis in a CH50-type assay. Peptides are at a final concentration of 0.5 mM. Values are represented as a percent of the positive control, which consists of human 0 sera and AB red blood cells in GVBS^++ buffer. Data are the means of n=3 independent experiments±SEM.
For hemolytic complement assays, human red blood cells (RBCs) from type AB donors were purified, washed, and standardized to 1.0×10^9 cells/ml, as previously described. Human sera from type 0 donors at a 15% final concentration was combined with 0.5 mM of the peptides and the volume was brought up to 0.2 ml with GVBS^++ and 5.0×10^7 RBCs. The samples were incubated for 1 hour at 37° C. and then spun at 3,000 rpm for 5 minutes and the supernatant was collected and read at 412 nm. Values are represented as a percent of the positive control, which consists of human 0 sera and AB red blood cells in GVBS^++ buffer.
To assess the extent to which the peptide variants inhibit antibody-initiated complement activation, an ABO incompatibility ex vivo assay was utilized in which purified erythrocytes from a ‘type AB+’ donor are incubated with sera from a ‘type 0’ subject containing anti-A and anti-B antibodies. Peptides were tested at a concentration of 0.8 mg/ml (˜0.5 mM).

MAC-1 = MAC-1 (Homo sapiens, UniProt P05107+P11215); assay: Peptide binding to immobilized MAC-1 (negative control), ELISA plate-based assay; settings: increasing amounts of peptide; negative control protein
Description: as §1, §2

PD-L1 = PD-L1 (Homo sapiens, UniProt Q9NZQ7); assay: Peptide binding to immobilized PD-L1, ELISA plate-based assay; settings: increasing amounts of peptide
Description: as §1, §2

[2] = Total Antioxidant Capacity (TAC) assay; settings: highest peptide concentration 1.5 mM; compared to parent peptide
Description: As previously reported, the TAC (Total Antioxidant Capacity) Assay (Cell Biolabs, Inc, San Diego, CA) was used to measure the antioxidant capacity of the PIC1 variants based on the reduction of copper (II) to copper (I). The kit protocol was performed per the manufacturer's recommendations.
The antioxidant properties for the PIC1 variants were evaluated in a Total Antioxidant Capacity (TAC) assay, as previously reported. Total antioxidant activity over a range of peptide concentrations were determined for the stapled and the D-amino acid peptides based on the PA-I8Sar and PA-C9Sar backbones (FIG. 4A-4B), with the activity of the highest peptide concentration reported (1.5 mM) (FIG. 5A-5C).

C1q [3] = biological target: T2, C1q (Homo sapiens, UniProt P02745+P02746+P02747); assay: C1q binding ELISA-type assay; settings: compared to parent peptide
T2 construct: purchased Complement Technology (Tyler, TX)
Description: The C1q binding assay was performed as previously described. Briefly, an Immunlon-2 HB ELISA plate was coated with 1 μg/ml C1q in bicarbonate buffer overnight at 4° C. The plates were washed with PBS-T (phosphate buffered saline+0.1% Tween) and then blocked with 1% gelatin/PBS for 2 hours at room temperature. After washing, the plates were incubated with the peptides starting at 2.5 mg/ml and then serially diluted in 1% gelatin/PBS for 1 hour at room temperature followed by washing. Plates were then probed with rabbit antibody raised against the lead peptide […] (SEQ ID NO: 2) that lacked PEGylation at 1:1000 in 1% gelatin/PBS for 1 hour at room temperature followed by a goat anti-rabbit HRP (Sigma Aldrich, St Louis, MO) at 1:1,000 in 1% gelatin/PBS for 1 hour at room temperature with a washing step in between. After addition of TMB substrate solution to the wells, the reaction was stopped using 1N H2SO4, and the plate read on a BioTek Synergy HT plate reader at 450 nm.
The astrovirus capsid protein and the PIC1 molecules derived from it inhibit classical complement pathway activation by binding to the pattern recognition molecule C1q. The inventors next tested peptide variant binding to C1q in an ELISA-type assay in which C1q is used as the capture substrate and bound peptide detected with a rabbit polyclonal antibody against the peptide portion of PA-dPEG24 ([…]-d24; SEQ ID NO: 3). Binding curves were derived for the stapled and D-amino acid peptides based on the PA-I8Sar and PA-C9Sar (FIG. 5A-5C) backbone, from which half-maximal binding concentrations were calculated (FIGS. 2A and B, respectively). […] For the peptides based on the PA-C9Sar backbone, C1q was bound to a greater degree than the parent peptide (FIG. 2B).

C1q [4] = biological target: T2, C1q; assay: Peptide binding to immobilized C1q (positive control), ELISA plate-based assay of Example 3; settings: increasing amounts of peptide; positive control protein
Description: as §1, §2

CTLA-4 = biological target: T3, CTLA-4 (Homo sapiens, UniProt P16410); assay: Peptide binding to immobilized CTLA-4, ELISA plate-based assay; settings: increasing amounts of peptide
T3 sequence (P16410 36-223): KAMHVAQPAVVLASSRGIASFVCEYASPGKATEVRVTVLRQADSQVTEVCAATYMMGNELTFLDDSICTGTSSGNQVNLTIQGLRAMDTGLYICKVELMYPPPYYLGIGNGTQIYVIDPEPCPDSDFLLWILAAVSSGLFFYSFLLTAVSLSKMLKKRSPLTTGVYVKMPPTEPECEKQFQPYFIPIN
Description: as §1, §2

T2 sequence (P02745 23-245): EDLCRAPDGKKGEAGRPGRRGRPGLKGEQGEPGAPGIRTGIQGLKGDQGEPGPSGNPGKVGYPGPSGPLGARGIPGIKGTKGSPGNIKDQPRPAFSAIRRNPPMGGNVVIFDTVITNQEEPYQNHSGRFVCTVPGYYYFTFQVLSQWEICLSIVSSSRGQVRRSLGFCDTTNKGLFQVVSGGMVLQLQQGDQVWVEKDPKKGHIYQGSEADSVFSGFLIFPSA
T2 sequence (P02746 28-253): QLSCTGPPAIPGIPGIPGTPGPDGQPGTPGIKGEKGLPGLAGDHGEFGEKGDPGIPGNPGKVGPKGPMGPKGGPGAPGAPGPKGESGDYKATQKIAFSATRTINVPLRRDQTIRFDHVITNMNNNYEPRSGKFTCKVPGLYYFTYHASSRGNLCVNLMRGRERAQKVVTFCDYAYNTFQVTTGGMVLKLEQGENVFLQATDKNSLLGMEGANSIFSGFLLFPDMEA
T2 sequence (P02747 29-245): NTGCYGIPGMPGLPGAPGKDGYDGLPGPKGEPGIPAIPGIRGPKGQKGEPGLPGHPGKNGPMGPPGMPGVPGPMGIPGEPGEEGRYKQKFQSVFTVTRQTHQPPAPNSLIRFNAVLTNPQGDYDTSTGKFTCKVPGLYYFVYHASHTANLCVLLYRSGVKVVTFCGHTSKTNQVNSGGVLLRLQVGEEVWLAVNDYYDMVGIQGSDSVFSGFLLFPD
PD-L1, sequence (Q9NZQ7 19-290): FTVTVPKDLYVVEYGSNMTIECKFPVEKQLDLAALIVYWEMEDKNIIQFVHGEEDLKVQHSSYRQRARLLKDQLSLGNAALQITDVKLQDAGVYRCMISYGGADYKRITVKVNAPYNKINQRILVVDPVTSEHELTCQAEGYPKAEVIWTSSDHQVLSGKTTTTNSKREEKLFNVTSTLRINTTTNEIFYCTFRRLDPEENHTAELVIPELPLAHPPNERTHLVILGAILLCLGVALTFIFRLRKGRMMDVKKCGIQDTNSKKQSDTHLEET
PD-1, sequence (Q15116 25-288): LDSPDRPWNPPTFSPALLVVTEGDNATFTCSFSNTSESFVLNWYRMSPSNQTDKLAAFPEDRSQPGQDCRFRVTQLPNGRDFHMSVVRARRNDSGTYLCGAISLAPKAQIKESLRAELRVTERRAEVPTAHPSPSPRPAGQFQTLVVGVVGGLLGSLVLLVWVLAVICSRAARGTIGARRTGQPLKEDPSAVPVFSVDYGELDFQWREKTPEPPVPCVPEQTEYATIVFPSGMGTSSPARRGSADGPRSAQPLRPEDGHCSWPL
T1 sequence (P05164 279-745 limits assumed): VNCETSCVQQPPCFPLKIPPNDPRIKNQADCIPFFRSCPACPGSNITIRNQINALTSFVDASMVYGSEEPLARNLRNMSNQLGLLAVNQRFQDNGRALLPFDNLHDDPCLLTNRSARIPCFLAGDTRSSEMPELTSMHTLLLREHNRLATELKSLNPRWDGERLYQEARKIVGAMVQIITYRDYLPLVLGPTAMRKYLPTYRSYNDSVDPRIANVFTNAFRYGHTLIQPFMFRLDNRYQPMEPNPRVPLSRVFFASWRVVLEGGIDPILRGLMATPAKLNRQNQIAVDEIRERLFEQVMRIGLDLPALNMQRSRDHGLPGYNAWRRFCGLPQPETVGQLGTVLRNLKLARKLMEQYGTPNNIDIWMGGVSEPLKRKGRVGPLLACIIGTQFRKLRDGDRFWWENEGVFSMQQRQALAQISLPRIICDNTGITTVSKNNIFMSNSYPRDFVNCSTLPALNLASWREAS
T1 sequence (P05164 165-273 limits assumed): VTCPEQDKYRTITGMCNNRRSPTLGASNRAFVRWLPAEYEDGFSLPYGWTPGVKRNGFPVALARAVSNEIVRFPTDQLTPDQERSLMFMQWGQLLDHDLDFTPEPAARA
MAC-1, sequence (P05107 23-769, other chains not shown): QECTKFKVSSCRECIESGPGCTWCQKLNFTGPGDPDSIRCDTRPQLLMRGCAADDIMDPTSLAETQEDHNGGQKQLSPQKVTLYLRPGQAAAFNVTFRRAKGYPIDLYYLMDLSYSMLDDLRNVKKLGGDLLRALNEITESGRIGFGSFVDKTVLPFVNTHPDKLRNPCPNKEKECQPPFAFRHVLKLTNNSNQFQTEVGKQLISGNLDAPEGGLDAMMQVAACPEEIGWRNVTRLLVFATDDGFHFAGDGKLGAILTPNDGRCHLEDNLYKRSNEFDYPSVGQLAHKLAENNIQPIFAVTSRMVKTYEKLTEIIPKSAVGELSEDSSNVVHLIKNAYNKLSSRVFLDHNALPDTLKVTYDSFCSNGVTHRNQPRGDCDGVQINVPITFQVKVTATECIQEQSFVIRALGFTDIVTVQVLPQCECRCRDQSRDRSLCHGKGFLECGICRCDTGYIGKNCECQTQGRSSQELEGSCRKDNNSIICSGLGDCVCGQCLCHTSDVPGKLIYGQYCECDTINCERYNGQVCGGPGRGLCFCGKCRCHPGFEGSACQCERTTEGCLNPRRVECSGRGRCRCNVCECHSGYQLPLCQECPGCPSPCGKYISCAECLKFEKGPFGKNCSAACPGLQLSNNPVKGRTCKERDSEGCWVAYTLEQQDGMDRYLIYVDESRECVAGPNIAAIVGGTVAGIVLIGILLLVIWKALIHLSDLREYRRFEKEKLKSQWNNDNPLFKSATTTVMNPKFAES

IAR8ILEP(Sar)CS5QERAA (IA[R8]ILEP[Sar]C[S5]QERAA; staple 3-10; not fully specified; printed as IAR8ILEP(Sar)CS5QERAA) [PA-0134]
inhibition of MPO activity (half-maximal values), in words (MPO): reduced inhibition of MPO activity
binding to PD-1, in words (PD-1): dose-dependent binding
inhibition of ABO incompatible hemolysis (complement inhibition), in words [1]: similar
binding to MAC-1, in words (MAC-1): minimal binding
binding to PD-L1, in words (PD-L1): dose-dependent binding
total antioxidant capacity, in words [2]: decreased activity compared to the parent peptide
binding to C1q (binding curves, half-maximal binding), in words (C1q [3]): markedly increased binding to C1q
binding to C1q, in words (C1q [4]): dose-dependent binding
binding to CTLA-4, in words (CTLA-4): bound CTLA-4
